Where only a bound is given, the exact number is not on record here.

The target in data set [1] is HA-tagged StTGA2.3, expressed in N. benthamiana (potato (Solanum tuberosum)).
A further data set has as its target T1, StTGA2.1 (mini-TGA) (Solanum tuberosum cv. Rywal, UniProt A0A9F1U434 1-270).
T1 sequence: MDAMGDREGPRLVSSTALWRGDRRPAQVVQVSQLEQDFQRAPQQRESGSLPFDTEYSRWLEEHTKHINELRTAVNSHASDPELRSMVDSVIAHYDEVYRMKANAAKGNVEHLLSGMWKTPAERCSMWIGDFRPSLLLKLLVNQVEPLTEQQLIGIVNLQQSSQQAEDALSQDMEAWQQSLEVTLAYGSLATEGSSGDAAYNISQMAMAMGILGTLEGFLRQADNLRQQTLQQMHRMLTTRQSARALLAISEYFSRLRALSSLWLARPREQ
Put plainly: SPR; 18.75-300 nM protein; 180 mM NaCl; 1 mM Mg2+; SPR Biacore T200, 25 C, 25 mM Tris pH 7.4, 140 mM NaCl (180 mM for StTGA2.1 alone), 1 mM MgCl2, 0.005% P20. Particulars: protein: recombinant; tags: N-terminal His6; chain copies: 2; 5' overhang 15 nt on strand 1. A general note: SPR reads the build-up and loss of mass on a sensor chip optically.

Data set [2] deals with T2, StTGA2.3 (Solanum tuberosum cv. Rywal, UniProt A0A9F1U446 1-327).
T2 sequence: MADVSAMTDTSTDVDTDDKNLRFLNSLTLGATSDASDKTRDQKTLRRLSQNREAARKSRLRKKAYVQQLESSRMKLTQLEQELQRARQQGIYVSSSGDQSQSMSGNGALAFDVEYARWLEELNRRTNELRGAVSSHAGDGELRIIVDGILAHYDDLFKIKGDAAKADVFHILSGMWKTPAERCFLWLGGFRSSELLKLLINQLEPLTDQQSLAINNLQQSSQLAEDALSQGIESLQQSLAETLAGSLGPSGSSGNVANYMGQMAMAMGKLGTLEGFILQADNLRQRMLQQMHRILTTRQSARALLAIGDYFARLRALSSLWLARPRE
Description: SPR; 1 mM Mg2+; dose-dependent response; SPR Biacore T200, 25 C, 25 mM Tris pH 7.4, 140 mM NaCl (180 mM for StTGA2.1 alone), 1 mM MgCl2, 0.005% P20. Particulars: protein: ivt; tags: C-terminal GS peptide; chain copies: 2; 5' overhang 15 nt on strand 1.

Data set [3] has as its target T3, StTGA2.3;StTGA2.1 (mini-TGA) (Solanum tuberosum cv. Rywal;Solanum …, UniProt A0A9F1U446;A0A9F1U434 1-327;1-270, |).
T3 sequence 1: T2 sequence
T3 sequence 2: T1 sequence
Put plainly: SPR; premixed with 300 nM StTGA2.1; higher response than StTGA2.3 alone; SPR Biacore T200, 25 C, 25 mM Tris pH 7.4, 140 mM NaCl (180 mM for StTGA2.1 alone), 1 mM MgCl2, 0.005% P20. The conditions noted are these: protein: ivt;recombinant; tags: C-terminal GS peptide;N-terminal His6; copies: 1;1; 5' overhang 15 nt on strand 1.

Data set [4] concerns the molecule itself. Put plainly: SEC; His6-tagged StTGA2.1; oligomeric state from elution volume against the Gel Filtration LMW calibration kit; 30 mM Tris pH 7.5, 400 mM NaCl. On the technique in general: In gel filtration, larger molecules generally elute earlier.
Data set [5] has as its target T2, StTGA2.3. Description: SPR; 1 mM Mg2+; interaction negligible; SPR Biacore T200, 25 C, 25 mM Tris pH 7.4, 140 mM NaCl (180 mM for StTGA2.1 alone), 1 mM MgCl2, 0.005% P20. Particulars: protein: ivt; tags: C-terminal GS peptide; chain copies: 2; 5' overhang 15 nt on strand 1.

Consider “StTGA2.1, GFP- or HA-tagged, expressed in N. benthamiana (natural protein)”, for which the StPRX07::LucF promoter activity (luciferase transactivation assay) in N. benthamiana leaves coexpressing GFP-tagged StTGA2.1 and BFP-tagged StTGA2.3, compared to control in data set [1] is greater than 2 fold.

B1: PRX07p_1 (dsDNA)
DNA 1: GTTACTACTCGAGCGTGTGCCCAACGTCACAATCC
DNA 2: GGATTGTGACGTTGGGCACA
As to B1, the binding result with StTGA2.1 (mini-TGA) is “no binding”; with StTGA2.3 [2], “binds”; in data set [3] it was “binds”.

B2: His6-tagged StTGA2.1, recombinant (natural protein, potato (Solanum tuberosum), UniProt A0A9F1U434 1-270, looked up)
chain: T1 sequence
notes: StTGA2.1, potato (Solanum tuberosum) cultivar Rywal; full-length cds in pMCSG7; C-terminal region printed as aa 47-240; Dimer by SEC elution volume; The tag is removable by TEV protease; not shown: His6, N-terminal, kept
The term stoichiometry N denotes a count of units in the complex or per binding partner. With B2, the “stoichiometry N” value in data set [4] came out at 2.

B3: PRX07p_2 (dsDNA)
DNA 1: GTTACTACTCGAGCGTTAGGGGTGACGTTTCCAAT
DNA 2: ATTGGAAACGTCACCCCTAA
As to B3, the binding result with StTGA2.1 (mini-TGA) was “no binding”; with StTGA2.3 [2], “binds”; in data set [3], “binds”.

B4: PRX15p_1 (dsDNA)
DNA 1: GTTACTACTCGAGCGTTTAATAATGATGACATTTG
DNA 2: CAAATGTCATCATTATTAAA
On to B4, for which the binding result with StTGA2.1 (mini-TGA) and with StTGA2.3 [5] was “no binding” throughout.

B5: PRX46p (dsDNA)
DNA 1: GTTACTACTCGAGCGTGAACCTGAGGTCAACCGTT
DNA 2: AACGGTTGACCTCAGGTTCA
For the molecule B5, the binding result with StTGA2.1 (mini-TGA) and with StTGA2.3 [5] was “no binding” throughout.

These data come from PMC10022624, “A mini-TGA protein modulates gene expression through heterogeneous association with transcription factors” (Plant Physiology, 2022).
